B1: Pistol ribozyme (parent)
chain: GGGUCGUUGUUCCAUAAUCGCGUGGAUAUGGCACGCAAGUUUCUACCGGGCACCGUAAAUGUCCGACUGGAGCCGUUCGGGCGGCUAUAAACAGACCUCAGGCCCGAAGCGUGGCGGCACCUGCCGCCGGUGGUAAAAAAGAUCGGAAGAGCACACGUCU

Variants of: B1
Test: aptazyme ON/OFF ratio, guanine; higher = stronger switching; co-transcriptional cleavage with and without guanine

Variant	aptazyme ON/OFF ratio
GGGUCGUUCUGCUAUAAUCGCGUGGAUAUGGCACGCAAGUUUCUACCGGGCACCGUAAAUGUCCGACUGGAGCCGUUCGGGCGGCUAUAAACAGACCUCAGGCCCGAAGCGUGGCGGCACCUGCCGCCGGUGGUAAAAAAGAUCGGAAGAGCACACGUCU	1.31
GGGUCGUUCUGCGAUAAUCGCGUGGAUAUGGCACGCAAGUUUCUACCGGGCACCGUAAAUGUCCGACUGGAGCCGUUCGGGCGGCUAUAAACAGACCUCAGGCCCGAAGCGUGGCGGCACCUGCCGCCGGUGGUAAAAAAGAUCGGAAGAGCACACGUCU	1.05
GGGUCGUUCUGCAAUAAUCGCGUGGAUAUGGCACGCAAGUUUCUACCGGGCACCGUAAAUGUCCGACUGGAGCCGUUCGGGCGGCUAUAAACAGACCUCAGGCCCGAAGCGUGGCGGCACCUGCCGCCGGUGGUAAAAAAGAUCGGAAGAGCACACGUCU	1.23
GGGUCGUUCUCGGAUAAUCGCGUGGAUAUGGCACGCAAGUUUCUACCGGGCACCGUAAAUGUCCGACUGGAGCCGUUCGGGCGGCUAUAAACAGACCUCAGGCCCGAAGCGUGGCGGCACCUGCCGCCGGUGGUAAAAAAGAUCGGAAGAGCACACGUCU	1.09
GGGUCGUUCUCGAAUAAUCGCGUGGAUAUGGCACGCAAGUUUCUACCGGGCACCGUAAAUGUCCGACUGGAGCCGUUCGGGCGGCUAUAAACAGACCUCAGGCCCGAAGCGUGGCGGCACCUGCCGCCGGUGGUAAAAAAGAUCGGAAGAGCACACGUCU	1.13
GGGUCGUUCUCGUAUAAUCGCGUGGAUAUGGCACGCAAGUUUCUACCGGGCACCGUAAAUGUCCGACUGGAGCCGUUCGGGCGGCUAUAAACAGACCUCAGGCCCGAAGCGUGGCGGCACCUGCCGCCGGUGGUAAAAAAGAUCGGAAGAGCACACGUCU	1.19
GGGUCGUUCUGAAAUAAUCGCGUGGAUAUGGCACGCAAGUUUCUACCGGGCACCGUAAAUGUCCGACUGGAGCCGUUCGGGCGGCUAUAAACAGACCUCAGGCCCGAAGCGUGGCGGCACCUGCCGCCGGUGGUAAAAAAGAUCGGAAGAGCACACGUCU	1.14
GGGUCGUUCUGAGAUAAUCGCGUGGAUAUGGCACGCAAGUUUCUACCGGGCACCGUAAAUGUCCGACUGGAGCCGUUCGGGCGGCUAUAAACAGACCUCAGGCCCGAAGCGUGGCGGCACCUGCCGCCGGUGGUAAAAAAGAUCGGAAGAGCACACGUCU	1.03
GGGUCGUUCUGAUAUAAUCGCGUGGAUAUGGCACGCAAGUUUCUACCGGGCACCGUAAAUGUCCGACUGGAGCCGUUCGGGCGGCUAUAAACAGACCUCAGGCCCGAAGCGUGGCGGCACCUGCCGCCGGUGGUAAAAAAGAUCGGAAGAGCACACGUCU	1.13
GGGUCGUUCUGCCAUAAUCGCGUGGAUAUGGCACGCAAGUUUCUACCGGGCACCGUAAAUGUCCGACUGGAGCCGUUCGGGCGGCUAUAAACAGACCUCAGGCCCGAAGCGUGGCGGCACCUGCCGCCGGUGGUAAAAAAGAUCGGAAGAGCACACGUCU	2.2
GGGUCGUUCUGUCAUAAUCGCGUGGAUAUGGCACGCAAGUUUCUACCGGGCACCGUAAAUGUCCGACUGGAGCCGUUCGGGCGGCUAUAAACAGACCUCAGGCCCGAAGCGUGGCGGCACCUGCCGCCGGUGGUAAAAAAGAUCGGAAGAGCACACGUCU	1.84
GGGUCGUUCUGGCAUAAUCGCGUGGAUAUGGCACGCAAGUUUCUACCGGGCACCGUAAAUGUCCGACUGGAGCCGUUCGGGCGGCUAUAAACAGACCUCAGGCCCGAAGCGUGGCGGCACCUGCCGCCGGUGGUAAAAAAGAUCGGAAGAGCACACGUCU	1.27
GGGUCGUUCUGACAUAAUCGCGUGGAUAUGGCACGCAAGUUUCUACCGGGCACCGUAAAUGUCCGACUGGAGCCGUUCGGGCGGCUAUAAACAGACCUCAGGCCCGAAGCGUGGCGGCACCUGCCGCCGGUGGUAAAAAAGAUCGGAAGAGCACACGUCU	1.11
GGGUCGUUCUGGGAUAAUCGCGUGGAUAUGGCACGCAAGUUUCUACCGGGCACCGUAAAUGUCCGACUGGAGCCGUUCGGGCGGCUAUAAACAGACCUCAGGCCCGAAGCGUGGCGGCACCUGCCGCCGGUGGUAAAAAAGAUCGGAAGAGCACACGUCU	1.07
GGGUCGUUCUGGAAUAAUCGCGUGGAUAUGGCACGCAAGUUUCUACCGGGCACCGUAAAUGUCCGACUGGAGCCGUUCGGGCGGCUAUAAACAGACCUCAGGCCCGAAGCGUGGCGGCACCUGCCGCCGGUGGUAAAAAAGAUCGGAAGAGCACACGUCU	1.24
GGGUCGUUCUGGUAUAAUCGCGUGGAUAUGGCACGCAAGUUUCUACCGGGCACCGUAAAUGUCCGACUGGAGCCGUUCGGGCGGCUAUAAACAGACCUCAGGCCCGAAGCGUGGCGGCACCUGCCGCCGGUGGUAAAAAAGAUCGGAAGAGCACACGUCU	1.05
GGGUCGUUUUUUCAUAAUCGCGUGGAUAUGGCACGCAAGUUUCUACCGGGCACCGUAAAUGUCCGACUGGAGCCGUUCGGGCGGCUAUAAACAGACCUCAGGCCCGAAGCGUGGCGGCACCUGCCGCCGGUGGUAAAAAAGAUCGGAAGAGCACACGUCU	2.37
GGGUCGUUUUUGCAUAAUCGCGUGGAUAUGGCACGCAAGUUUCUACCGGGCACCGUAAAUGUCCGACUGGAGCCGUUCGGGCGGCUAUAAACAGACCUCAGGCCCGAAGCGUGGCGGCACCUGCCGCCGGUGGUAAAAAAGAUCGGAAGAGCACACGUCU	1.75

Variant	aptazyme ON/OFF ratio
GGGUCGUUUUUACAUAAUCGCGUGGAUAUGGCACGCAAGUUUCUACCGGGCACCGUAAAUGUCCGACUGGAGCCGUUCGGGCGGCUAUAAACAGACCUCAGGCCCGAAGCGUGGCGGCACCUGCCGCCGGUGGUAAAAAAGAUCGGAAGAGCACACGUCU	1.08
GGGUCGUUUUUAUAUAAUCGCGUGGAUAUGGCACGCAAGUUUCUACCGGGCACCGUAAAUGUCCGACUGGAGCCGUUCGGGCGGCUAUAAACAGACCUCAGGCCCGAAGCGUGGCGGCACCUGCCGCCGGUGGUAAAAAAGAUCGGAAGAGCACACGUCU	1.1
GGGUCGUUUUUAGAUAAUCGCGUGGAUAUGGCACGCAAGUUUCUACCGGGCACCGUAAAUGUCCGACUGGAGCCGUUCGGGCGGCUAUAAACAGACCUCAGGCCCGAAGCGUGGCGGCACCUGCCGCCGGUGGUAAAAAAGAUCGGAAGAGCACACGUCU	1.45
GGGUCGUUUUUAAAUAAUCGCGUGGAUAUGGCACGCAAGUUUCUACCGGGCACCGUAAAUGUCCGACUGGAGCCGUUCGGGCGGCUAUAAACAGACCUCAGGCCCGAAGCGUGGCGGCACCUGCCGCCGGUGGUAAAAAAGAUCGGAAGAGCACACGUCU	1.63
GGGUCGUUUUUCCAUAAUCGCGUGGAUAUGGCACGCAAGUUUCUACCGGGCACCGUAAAUGUCCGACUGGAGCCGUUCGGGCGGCUAUAAACAGACCUCAGGCCCGAAGCGUGGCGGCACCUGCCGCCGGUGGUAAAAAAGAUCGGAAGAGCACACGUCU	4.29
GGGUCGUUUUUGGAUAAUCGCGUGGAUAUGGCACGCAAGUUUCUACCGGGCACCGUAAAUGUCCGACUGGAGCCGUUCGGGCGGCUAUAAACAGACCUCAGGCCCGAAGCGUGGCGGCACCUGCCGCCGGUGGUAAAAAAGAUCGGAAGAGCACACGUCU	1.27
GGGUCGUUUUUGAAUAAUCGCGUGGAUAUGGCACGCAAGUUUCUACCGGGCACCGUAAAUGUCCGACUGGAGCCGUUCGGGCGGCUAUAAACAGACCUCAGGCCCGAAGCGUGGCGGCACCUGCCGCCGGUGGUAAAAAAGAUCGGAAGAGCACACGUCU	1.52
GGGUCGUUUUUGUAUAAUCGCGUGGAUAUGGCACGCAAGUUUCUACCGGGCACCGUAAAUGUCCGACUGGAGCCGUUCGGGCGGCUAUAAACAGACCUCAGGCCCGAAGCGUGGCGGCACCUGCCGCCGGUGGUAAAAAAGAUCGGAAGAGCACACGUCU	1.43
GGGUCGUUCUCCGAUAAUCGCGUGGAUAUGGCACGCAAGUUUCUACCGGGCACCGUAAAUGUCCGACUGGAGCCGUUCGGGCGGCUAUAAACAGACCUCAGGCCCGAAGCGUGGCGGCACCUGCCGCCGGUGGUAAAAAAGAUCGGAAGAGCACACGUCU	1.03
GGGUCGUUCUCCUAUAAUCGCGUGGAUAUGGCACGCAAGUUUCUACCGGGCACCGUAAAUGUCCGACUGGAGCCGUUCGGGCGGCUAUAAACAGACCUCAGGCCCGAAGCGUGGCGGCACCUGCCGCCGGUGGUAAAAAAGAUCGGAAGAGCACACGUCU	1.04
GGGUCGUUCUCCAAUAAUCGCGUGGAUAUGGCACGCAAGUUUCUACCGGGCACCGUAAAUGUCCGACUGGAGCCGUUCGGGCGGCUAUAAACAGACCUCAGGCCCGAAGCGUGGCGGCACCUGCCGCCGGUGGUAAAAAAGAUCGGAAGAGCACACGUCU	1.06
GGGUCGUUCUCUCAUAAUCGCGUGGAUAUGGCACGCAAGUUUCUACCGGGCACCGUAAAUGUCCGACUGGAGCCGUUCGGGCGGCUAUAAACAGACCUCAGGCCCGAAGCGUGGCGGCACCUGCCGCCGGUGGUAAAAAAGAUCGGAAGAGCACACGUCU	1.14
GGGUCGUUCUCUAAUAAUCGCGUGGAUAUGGCACGCAAGUUUCUACCGGGCACCGUAAAUGUCCGACUGGAGCCGUUCGGGCGGCUAUAAACAGACCUCAGGCCCGAAGCGUGGCGGCACCUGCCGCCGGUGGUAAAAAAGAUCGGAAGAGCACACGUCU	1.09
GGGUCGUUCUCUGAUAAUCGCGUGGAUAUGGCACGCAAGUUUCUACCGGGCACCGUAAAUGUCCGACUGGAGCCGUUCGGGCGGCUAUAAACAGACCUCAGGCCCGAAGCGUGGCGGCACCUGCCGCCGGUGGUAAAAAAGAUCGGAAGAGCACACGUCU	1.01
GGGUCGUUCUCUUAUAAUCGCGUGGAUAUGGCACGCAAGUUUCUACCGGGCACCGUAAAUGUCCGACUGGAGCCGUUCGGGCGGCUAUAAACAGACCUCAGGCCCGAAGCGUGGCGGCACCUGCCGCCGGUGGUAAAAAAGAUCGGAAGAGCACACGUCU	1.14
GGGUCGUUCUGUGAUAAUCGCGUGGAUAUGGCACGCAAGUUUCUACCGGGCACCGUAAAUGUCCGACUGGAGCCGUUCGGGCGGCUAUAAACAGACCUCAGGCCCGAAGCGUGGCGGCACCUGCCGCCGGUGGUAAAAAAGAUCGGAAGAGCACACGUCU	1.25
GGGUCGUUCUGUAAUAAUCGCGUGGAUAUGGCACGCAAGUUUCUACCGGGCACCGUAAAUGUCCGACUGGAGCCGUUCGGGCGGCUAUAAACAGACCUCAGGCCCGAAGCGUGGCGGCACCUGCCGCCGGUGGUAAAAAAGAUCGGAAGAGCACACGUCU	1.3
GGGUCGUUCUGUUAUAAUCGCGUGGAUAUGGCACGCAAGUUUCUACCGGGCACCGUAAAUGUCCGACUGGAGCCGUUCGGGCGGCUAUAAACAGACCUCAGGCCCGAAGCGUGGCGGCACCUGCCGCCGGUGGUAAAAAAGAUCGGAAGAGCACACGUCU	1.41

Reference: the RNAGym collection of RNA variant scans (doi:10.1021/acssynbio.7b00057)
